In the assay the target is EGFP-MeCP2 R306C (mouse).

For the substance “NCoR1 (from UniProt O75376 1-2440) (natural protein)”, the methylation-dependent transcriptional repression of a luciferase reporter (untagged MeCP2 e1 in Mecp2-/y, Mbd2-/- mouse tail fibroblasts), relative to WT MeCP2 was 25 % of WT.

Values taken from PMC6030874.
